Key:
NFAT1 DNA binding domain [1] = molecular target: T1, NFAT1 DNA binding domain (Homo sapiens, UniProt Q13469 Q13469:399-676); test: EMSA; 20 mM Hepes pH 7.6, 150 mM NaCl, 1 mM DTT, 12% glycerol, RT; formaldehyde diminished binding, BFPX probes did not; also photocrosslinked; conditions: label: 5'-Cy5 (or 5'6-FAM)
T1 sequence: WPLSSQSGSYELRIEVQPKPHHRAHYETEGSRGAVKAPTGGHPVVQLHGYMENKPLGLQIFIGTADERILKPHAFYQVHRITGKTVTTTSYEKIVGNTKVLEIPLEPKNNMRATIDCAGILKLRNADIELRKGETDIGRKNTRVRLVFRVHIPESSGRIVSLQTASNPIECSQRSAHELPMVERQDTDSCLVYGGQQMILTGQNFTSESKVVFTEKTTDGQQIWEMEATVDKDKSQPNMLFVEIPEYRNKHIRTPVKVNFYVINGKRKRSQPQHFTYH
Procedure: FIG. 12C depicts Native EMSA assay of the effect of Formaldehyde (FA), BFPX probe (SPB-AAD, SPB-PEG4-AAD, and SPB-Spermidine-AD) at various concentrations, and UVA (365 nm) on the DNA binding by NFAT1. The binding reactions were performed in a buffer of 20 mM Hepes pH 7.6, 150 mM NaCl, 1 mM DTT, 12% glycerol. Typically protein and DNA are mixed to bind at room temperature for 30 min, followed by addition of BFPX probes for an additional 15 min and then UV illumination. In the case of FA treatment, the reaction time is 10 min at room temperature and then quenched by 250 mM glycine. […] Half of the binding reaction (7.5 μl) was run on a 10% PAGE 0.5×TBE gel and visualized by Cy5 fluorescence on DNA. […] Neither of these experimental imperfections affected the main conclusion of this experiment because the double stranded-DNA bands and the specific NFAT-DNA complex bands (the middle sharp bands) are well defined and can be monitored without the interference of the other bands.
(§1) FIG. 12D depicts the other half of binding reaction from the above experiments (FIG. 12C) were added SDS loading dye (2% SDS), boil for 10 min, and run on SDS gel (4-15% gradient gel). The gel was visualized by Cy5 fluorescence for DNA.

[2] = molecular target: Nkx2.5 DNA binding domain (homeodomain) (Homo sapiens, UniProt P52952 P52952:138-197); test: SPB-AAD, SPB-PEG4-AAD or SPB-Spermidine-AD + UV365 photocrosslinking, SDS-PAGE; none with formaldehyde or UV alone; conditions: label: 5'6-FAM
Chain of Nkx2.5 DNA binding domain (homeodomain) (P52952 138-197, one chain of several): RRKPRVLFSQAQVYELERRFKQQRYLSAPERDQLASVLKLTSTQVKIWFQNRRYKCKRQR

MEF2A DNA binding domain [3] = molecular target: T2, MEF2A DNA binding domain (Homo sapiens, UniProt Q02078 Q02078:2-95); test: 4AMT-SDAD + UV365 photocrosslinking, reversed by TCEP; conditions: chain copies: 2; label: 5'6-FAM
T2 sequence (Q02078 2-95, one chain of several): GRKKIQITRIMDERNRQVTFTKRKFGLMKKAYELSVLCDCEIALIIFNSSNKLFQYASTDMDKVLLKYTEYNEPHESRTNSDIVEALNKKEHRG

MEF2A DNA binding domain [4] = molecular target: T2, MEF2A DNA binding domain; test: SPB-AAD 100 uM + UV365 photocrosslinking, SDS-PAGE; no crosslink without probe; conditions: chain copies: 2; label: 5'6-FAM
p53 DNA binding domain = p53 DNA binding domain (Homo sapiens, UniProt P04637 P04637:102-292); test: SPB-AAD, SPB-PEG4-AAD or SPB-Spermidine-AD + UV365 photocrosslinking, SDS-PAGE; conditions: chain copies: 4 stated; label: 5'-Cy5
Chain of p53 DNA binding domain (P04637 102-292, one chain of several): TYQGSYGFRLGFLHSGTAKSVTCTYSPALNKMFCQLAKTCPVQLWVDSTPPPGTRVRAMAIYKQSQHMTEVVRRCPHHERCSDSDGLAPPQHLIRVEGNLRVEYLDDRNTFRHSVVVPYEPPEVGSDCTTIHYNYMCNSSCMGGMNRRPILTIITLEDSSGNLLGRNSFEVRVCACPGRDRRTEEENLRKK

NFAT1 DNA binding domain [5] = molecular target: T1, NFAT1 DNA binding domain; test: SPB-AAD 100 uM + UV365 photocrosslinking, SDS-PAGE
Procedure: The UV illumination (as indicated by a positive sign) was carried out using a LED Chip (21.4 mm×21.4 mm, 365-370 nm, 30 Watt, sample distance 2 cm, exposure time 2-15 min at 4 degree C., here the exposure time is 15 min). Half of the binding reaction (7.5 μl) was run on a 10% PAGE 0.5×TBE gel and visualized by Cy5 fluorescence on DNA. The small amount of single stranded DNA is due to incomplete annealing. The higher smearing bands are most likely non-specific protein complexes. Neither of these experimental imperfections affected the main conclusion of this experiment because the double stranded-DNA bands and the specific NFAT-DNA complex bands (the middle sharp bands) are well defined and can be monitored without the interference of the other bands.
as §1
FIG. 12E depicts further characterization of BFPX crosslinking of NFAT1/DNA complexes using different DNA substrates and staining techniques. […] The reactions were then analyzed by SDS PAGE under denaturing condition as described in FIG. 12D. […]

B1: ARRE2 27-mer (dsDNA)
DNA 1: CCATAGAGGAAAATTTGTTTCATACAG
DNA 2: CTGTATGAAACAAATTTTCCTCTATGG
binding result (NFAT1 DNA binding domain [1]): binds

B2: Nkx2.5 site 19-mer (dsDNA)
DNA 1: ACTATTTTAAGAACGTGCT
DNA 2: AGCACGTTCTTAAAATAGT
binding result [2]: binds

B3: MEF2 site 16-mer (only the core site printed) (dsDNA)
DNA 1: CTATAAATAG
DNA 2: CTATTTATAG
binding result (MEF2A DNA binding domain [3]): binds

B4: MEF2 consensus site DNA (44-mer; only the core site printed) (dsDNA)
DNA 1: CTATAAATAG
DNA 2: CTATTTATAG
binding result (MEF2A DNA binding domain [4]): binds

B5: p53 tetramer site 37-mer (dsDNA)
DNA 1: GCTAGCGTAGCAGGCATGCCTAGGCATGCCTGCTACG
DNA 2: CGTAGCAGGCATGCCTAGGCATGCCTGCTACGCTAGC
binding result (p53 DNA binding domain): binds

B6: c2 NFAT 16-mer (dsDNA)
DNA 1: GTAGAGGAATTTCCTA
DNA 2: TAGGAAATTCCTCTAC
binding result (NFAT1 DNA binding domain [5]): binds

Source: patent publication US20250388597A1, “BIFUNCTIONAL PHOTOCROSSLINKING PROBES FOR COVALENT CAPTURE OF PROTEIN-NUCLEIC ACID COMPLEXES IN CELLS” (UNIVERSITY OF SOUTHERN CALIFORNIA, priority 2022, published 2025)
